The EC50 is the concentration needed to bring the measured effect to its halfway point.

EC50 data for 4 substances are collected here from patent publication US20180355003A1.

Test [1] concerns the target His-tagged IDO1 human recombinant protein (71182, BPS Biosciences) (UniProt P14902). The test can be described thus: ELISA. On the technique in general: An ELISA detects its analyte on a solid surface through an enzyme-linked reagent.
The next test addresses Human IDO1 (UniProt P14902). Briefly: ELISA.

Sequence of Human IDO1 (P14902 2-403): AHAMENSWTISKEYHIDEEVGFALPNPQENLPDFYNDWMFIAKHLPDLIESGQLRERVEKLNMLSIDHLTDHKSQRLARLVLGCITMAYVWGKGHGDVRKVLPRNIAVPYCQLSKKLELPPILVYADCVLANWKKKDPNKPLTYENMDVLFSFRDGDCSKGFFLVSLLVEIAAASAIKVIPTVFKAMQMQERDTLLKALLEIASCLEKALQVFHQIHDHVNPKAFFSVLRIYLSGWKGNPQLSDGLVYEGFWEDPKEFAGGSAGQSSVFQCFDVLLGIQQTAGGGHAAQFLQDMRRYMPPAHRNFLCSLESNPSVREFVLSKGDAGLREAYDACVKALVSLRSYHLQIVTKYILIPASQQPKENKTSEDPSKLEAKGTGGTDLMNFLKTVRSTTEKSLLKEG
Sequence of His-tagged IDO1 human recombinant protein (71182, BPS Biosciences) (P14902 2-403): as above

For the substance Biotin-PEG3-Cy(nlf(Me-Trp)a), the EC50 in test [1] is 104 nM.
In the test with Human IDO1, yray displayed an EC50 of 113 nM.
ww(F-Phe): the 50% effective concentration (EC50) in the test with Human IDO1 turned out to be 96 nM.
The substance w--ray gave an EC50 in the test with Human IDO1 of 79 nM.
